# In patent US20250270332A1:
# B1: CM0126 (Dia-Fc-Dia) (bispecific antibody)
# chain 1: MNLLLILTFVAAAVAEFEVQLVESGGGLVQPGGSLRLSCAASGFNIHSSSIHWVRQAPGKGLEWVAATYSSFGSITYADSVKGRFTISADTSKNTAYLQMNSLRAEDTAVYYCARYHHPFGYALDYWGQGTLVTVSSGGGGSDIQMTQSPSSLSASVGDRVTITCRASQSVSSAVAWYQQKPGKAPKLLIYSASSLYSGVPSRFSGSRSGTDFTLTISSLQPEDFATYYCQQGVYLFTFGQGTKVEIKLEDKTHTKVEPKSSDKTHNCPPCPAPELLGGPSVFLFPPKPKDTLMISRTPEVTCVVVDVSHEDPEVKFNWYVDGVEVHNAKTKPREEQYNSTYRVVSVLTVLHQDWLNGKEYKCKVSNKALPAPIEKTISKAKGQPREPQVYTLPPIRELMTSNQVSLSCAVKGFYPSDIAVEWESNGQPENNYKTTPPVLDSDGSFFLVSKLTVDKSRWQQGNVFSCSVMHEALHNHYTQKSLSLSPGKSGSETPGTSESATPESGGGEVQLVESGGGLVQPGGSLRLSCAASGFNISSYYIHWVRQAPGKGLEWVASIYSSYGYTSYADSVKGRFTISADTSKNTAYLQMNSLRAEDTAVYYCARTVRGSKKPYFSGWAMDYWGQGTLVTVSSGGGGSDIQMTQSPSSLSASVGDRVTITCRASQSVSSAVAWYQQKPGKAPKLLIYSASSLYSGVPSRFSGSRSGTDFTLTISSLQPEDFATYYCQQYSWGPFTFGQGTKVEIK
# chain 2: MNLLLILTFVAAAVAEFEVQLVESGGGLVQPGGSLRLSCAASGFNIHSSSIHWVRQAPGKGLEWVAATYSSFGSITYADSVKGRFTISADTSKNTAYLQMNSLRAEDTAVYYCARYHHPFGYALDYWGQGTLVTVSSGGGGSDIQMTQSPSSLSASVGDRVTITCRASQSVSSAVAWYQQKPGKAPKLLIYSASSLYSGVPSRFSGSRSGTDFTLTISSLQPEDFATYYCQQGVYLFTFGQGTKVEIKLEDKTHTKVEPKTSDKTHTCPPCPAPELLGGPSVFLFPPKPKDTLMISRTPEVTCVVVDVSHEDPEVKFNWYVDGVEVHNAKTKPREEQYNSTYRVVSVLTVLHQDWLNGKEYKCKVSNKALPAPIEKTISKAKGQPREPMVFDLPPSREEMTKNQVSLWCMVKGFYPSDIAVEWESNGQPENNYKTTPPVLDSDGSFFLYSKLTVDKSRWQQGNVFSCSVMHEALHNHYTQKSLSLSPGKSGSETPGTSESATPESGGGEVQLVESGGGLVQPGGSLRLSCAASGFNISYSSIHWVRQAPGKGLEWVAYISSYYGYTYYADSVKGRFTISADTSKNTAYLQMNSLRAEDTAVYYCARAHYFPWAGAMDYWGQGTLVTVSSGGGGSDIQMTQSPSSLSASVGDRVTITCRASQSVSSAVAWYQQKPGKAPKLLIYSASSLYSGVPSRFSGSRSGTDFTLTISSLQPEDFATYYCQQYYWPITFGQGTKVEIK
# B2: CT0001 (bispecific antibody)
# heavy 1: EVQLVESGGGLVQPGGSLRLSCAASGFNIHSSSIHWVRQAPGKGLEWVAATYSSFGSITYADSVKGRFTISADTSKNTAYLQMNSLRAEDTAVYYCARYHHPFGYALDYWGQGTLVTVSSASTKGPSVFPLAPSSKSTSGGTAALGCLVKDYFPEPVTVSWNSGALTSGVHTFPAVLQSSGLYSLSSVVTVPSSSLGTQTYICNVNHKPSNTKVDKKVEPKSCDKTHTCPPCPAPELLGGPSVFLFPPKPKDTLMISRTPEVTCVVVDVSHEDPEVKFNWYVDGVEVHNAKTKPREEQYNSTYRVVSVLTVLHQDWLNGKEYKCKVSNKALPAPIEKTISKAKGQPREPQVYTLPPIRELMTSNQVSLSCAVKGFYPSDIAVEWESNGQPENNYKTTPPVLDSDGSFFLVSKLTVDKSRWQQGNVFSCSVMHEALHNHYTQKSLSLSPGKSGSETPGTSESATPESGGGEVQLVESGGGLVQPGGSLRLSCAASGFNISSYYIHWVRQAPGKGLEWVASIYSSYGYTSYADSVKGRFTISADTSKNTAYLQMNSLRAEDTAVYYCARTVRGSKKPYFSGWAMDYWGQGTLVTVSSGGGGSDIQMTQSPSSLSASVGDRVTITCRASQSVSSAVAWYQQKPGKAPKLLIYSASSLYSGVPSRFSGSRSGTDFTLTISSLQPEDFATYYCQQYSWGPFTFGQGTKVEIK
# heavy 2: EVQLVESGGGLVQPGGSLRLSCAASGFNIHSSSIHWVRQAPGKGLEWVAATYSSFGSITYADSVKGRFTISADTSKNTAYLQMNSLRAEDTAVYYCARYHHPFGYALDYWGQGTLVTVSSASTKGPSVFPLAPSSKSTSGGTAALGCLVKDYFPEPVTVSWNSGALTSGVHTFPAVLQSSGLYSLSSVVTVPSSSLGTQTYICNVNHKPSNTKVDKKVEPKSCDKTHTCPPCPAPELLGGPSVFLFPPKPKDTLMISRTPEVTCVVVDVSHEDPEVKFNWYVDGVEVHNAKTKPREEQYNSTYRVVSVLTVLHQDWLNGKEYKCKVSNKALPAPIEKTISKAKGQPREPMVFDLPPSREEMTKNQVSLWCMVKGFYPSDIAVEWESNGQPENNYKTTPPVLDSDGSFFLYSKLTVDKSRWQQGNVFSCSVMHEALHNHYTQKSLSLSPGKSGSETPGTSESATPESGGGEVQLVESGGGLVQPGGSLRLSCAASGFNISYSSIHWVRQAPGKGLEWVAYISSYYGYTYYADSVKGRFTISADTSKNTAYLQMNSLRAEDTAVYYCARAHYFPWAGAMDYWGQGTLVTVSSGGGGSDIQMTQSPSSLSASVGDRVTITCRASQSVSSAVAWYQQKPGKAPKLLIYSASSLYSGVPSRFSGSRSGTDFTLTISSLQPEDFATYYCQQYYWPITFGQGTKVEIK
# light: DIQMTQSPSSLSASVGDRVTITCRASQSVSSAVAWYQQKPGKAPKLLIYSASSLYSGVPSRFSGSRSGTDFTLTISSLQPEDFATYYCQQGVYLFTFGQGTKVEIKRTVAAPSVFIFPPSDEQLKSGTASVVCLLNNFYPREAKVQWKVDNALQSGNSQESVTEQDSKDSTYSLSSTLTLSKADYEKHKVYACEVTHQGLSSPVTKSFNRGEC
# B3: ANT-1 (bispecific antibody)
# heavy 1: MNLLLILTFVAAAVAEFEVQLVESGGGLVQPGGSLRLSCAASGFNISSYYIHWVRQAPGKGLEWVASIYSSYGYTSYADSVKGRFTISADTSKNTAYLQMNSLRAEDTAVYYCARTVRGSKKPYFSGWAMDYWGQGTLVTVSSGGGGSDIQMTQSPSSLSASVGDRVTITCRASQSVSSAVAWYQQKPGKAPKLLIYSASSLYSGVPSRFSGSRSGTDFTLTISSLQPEDFATYYCQQYYFLITFGQGTKVEIKLEDKTHTKVEPKSSDKTHNCPPCPAPELLGGPSVFLFPPKPKDTLMISRTPEVTCVVVDVSHEDPEVKFNWYVDGVEVHNAKTKPREEQYNSTYRVVSVLTVLHQDWLNGKEYKCKVSNKALPAPIEKTISKAKGQPREPQVYTLPPIRELMTSNQVSLSCAVKGFYPSDIAVEWESNGQPENNYKTTPPVLDSDGSFFLVSKLTVDKSRWQQGNVFSCSVMHEALHNHYTQKSLSLSPGKSGSETPGTSESATPESGGGEVQLVESGGGLVQPGGSLRLSCAASGFNIHSSSIHWVRQAPGKGLEWVAATYSSFGSITYADSVKGRFTISADTSKNTAYLQMNSLRAEDTAVYYCARYHHPFGYALDYWGQGTLVTVSSASTKGPSVFPLAPSSKSTSGGTAALGCLVKDYFPEPVTVSWNSGALTSGVHTFPAVLQSSGLYSLSSVVTVPSSSLGTQTYICNVNHKPSNTKVDKKVEPKSCDKTHT
# heavy 2: MNLLLILTFVAAAVAEFEVQLVESGGGLVQPGGSLRLSCAASGFNISYSSIHWVRQAPGKGLEWVASISPYYGYTYYADSVKGRFTISADTSKNTAYLQMNSLRAEDTAVYYCARSSYFPWFSAMDYWGQGTLVTVSSGGGGSDIQMTQSPSSLSASVGDRVTITCRASQSVSSAVAWYQQKPGKAPKLLIYSASSLYSGVPSRFSGSRSGTDFTLTISSLQPEDFATYYCQQYYWPITFGQGTKVEIKLEDKTHTKVEPKTSDKTHTCPPCPAPELLGGPSVFLFPPKPKDTLMISRTPEVTCVVVDVSHEDPEVKFNWYVDGVEVHNAKTKPREEQYNSTYRVVSVLTVLHQDWLNGKEYKCKVSNKALPAPIEKTISKAKGQPREPMVFDLPPSREEMTKNQVSLWCMVKGFYPSDIAVEWESNGQPENNYKTTPPVLDSDGSFFLYSKLTVDKSRWQQGNVFSCSVMHEALHNHYTQKSLSLSPGKSGSETPGTSESATPESGGGEVQLVESGGGLVQPGGSLRLSCAASGFNIHSSSIHWVRQAPGKGLEWVAATYSSFGSITYADSVKGRFTISADTSKNTAYLQMNSLRAEDTAVYYCARYHHPFGYALDYWGQGTLVTVSSASTKGPSVFPLAPSSKSTSGGTAALGCLVKDYFPEPVTVSWNSGALTSGVHTFPAVLQSSGLYSLSSVVTVPSSSLGTQTYICNVNHKPSNTKVDKKVEPKSCDKTHT
# light: B2 light
# Target: FZD1/2/4/5/7/8
# Experiment: cell-based or functional assay
% Wnt Maxima Avg [%],"EC50 (nM), TOPFLASH assay [nM]",Maximal Signal (% Wnt3a maxima) (% Wnt3a maxima),Topflash EC50 (nM) Avg [nM],Binder
52,0.3,52,0.3,B1
57,0.3,57,0.3,B2
49,0.7,50,0.7,B3
